In assay [1] the target is avi-β1AR-W (turkey β1-adrenergic receptor β1AR-MetΔ5, thermostabilised with E130W, N-terminal biotinylated avi-tag) (turkey) (UniProt P07700). In words: BLI; biotinylated avi-tagged receptor in LMNG immobilised on streptavidin biosensors; 500 μM isoprenaline; mini-G in solution at a single concentration (0.125-4 μM); 20 mM TrisHCl pH 8.0, 150 mM NaCl, 15 mM MgCl2, 0.02% LMNG, 0.1% BSA; 25 °C; 1:1 monophasic local partial fit; one of n = 3 tips. For orientation: BLI is a label-free optical method that tracks binding on a fibre tip over time.
Sequence of avi-β1AR-W (turkey β1-adrenergic receptor β1AR-MetΔ5, thermostabilised with E130W, N-terminal biotinylated avi-tag) (turkey) (P07700 other isoform, or with tags, fused parts or gaps with the stated changes): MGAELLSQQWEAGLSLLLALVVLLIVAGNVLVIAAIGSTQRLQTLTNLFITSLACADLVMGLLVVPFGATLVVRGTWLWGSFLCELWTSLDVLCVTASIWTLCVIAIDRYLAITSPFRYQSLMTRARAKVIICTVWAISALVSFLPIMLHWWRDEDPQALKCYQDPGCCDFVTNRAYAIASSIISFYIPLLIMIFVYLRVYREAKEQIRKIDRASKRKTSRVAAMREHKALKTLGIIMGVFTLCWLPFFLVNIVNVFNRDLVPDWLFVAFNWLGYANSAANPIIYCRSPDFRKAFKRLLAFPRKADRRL

Assay [2] concerns the target avi-β1AR-E (turkey β1-adrenergic receptor, minimally thermostabilised construct with E130 restored, N-terminal biotinylated avi-tag) (turkey) (UniProt P07700). The description is as above.
Assay [3] addresses avi-β1AR-W (turkey β1-adrenergic receptor β1AR-MetΔ5, thermostabilised with E130W, N-terminal biotinylated avi-tag) (turkey) (UniProt P07700). Kind of assay: BLI; biotinylated avi-tagged receptor in LMNG immobilised on streptavidin biosensors; 500 μM xamoterol (partial agonist); mini-Gs in solution at 4 μM (column 4); 20 mM TrisHCl pH 8.0, 150 mM NaCl, 15 mM MgCl2, 0.02% LMNG, 0.1% BSA; 25 °C; 1:1 monophasic local partial fit; each row one of n = ….

The target of assay [4] is avi-β1AR-E (turkey β1-adrenergic receptor, minimally thermostabilised construct with E130 restored, N-terminal biotinylated avi-tag) (turkey) (UniProt P07700). The description is as above.
Sequence of avi-β1AR-E (turkey β1-adrenergic receptor, minimally thermostabilised construct with E130 restored, N-terminal biotinylated avi-tag) (turkey) (P07700 other isoform, or with tags, fused parts or gaps with the stated changes): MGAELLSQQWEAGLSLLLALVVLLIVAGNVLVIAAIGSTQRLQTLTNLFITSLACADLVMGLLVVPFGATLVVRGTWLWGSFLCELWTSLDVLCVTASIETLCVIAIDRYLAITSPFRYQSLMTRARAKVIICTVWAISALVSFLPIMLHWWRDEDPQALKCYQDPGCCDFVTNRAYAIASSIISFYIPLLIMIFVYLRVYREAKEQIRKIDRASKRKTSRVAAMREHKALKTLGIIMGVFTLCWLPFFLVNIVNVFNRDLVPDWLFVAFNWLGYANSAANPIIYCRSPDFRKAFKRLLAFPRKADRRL
Assay [5] deals with avi-β1AR-W (turkey β1-adrenergic receptor β1AR-MetΔ5, thermostabilised with E130W, N-terminal biotinylated avi-tag) (turkey) (UniProt P07700). In words: BLI; biotinylated avi-tagged receptor in LMNG immobilised on streptavidin biosensors; 500 μM salbutamol (partial agonist); mini-Gs in solution at a single concentration (1 or 2 μM); 20 mM TrisHCl pH 8.0, 150 mM NaCl, 15 mM MgCl2, 0.02% LMNG, 0.1% BSA; 25 °C; 1:1 monophasic local partial fit; one of n = 3 tips.

Assay [6] addresses avi-β1AR-E (turkey β1-adrenergic receptor, minimally thermostabilised construct with E130 restored, N-terminal biotinylated avi-tag) (turkey) (UniProt P07700). The description is as above.

“And” between values parts separate entries of the source, which are not always exact repeats. Equal values may be shown once.

The term Kd denotes the concentration at which binding is half-saturated. mini-Gs 393 C96A (domain or fragment): the Kd was 173 nM and 170 nM and 141 nM in assay [1]; 42.9 nM and 46.3 nM and 51.2 nM in assay [2]; 3060 nM and 2950 nM and 2900 nM in assay [3]; 2370 nM and 2320 nM and 2400 nM in assay [4]; 1440 nM in assay [5]; 977 nM and 962 nM and 946 nM in assay [6].

(Values after publication PMC10864275, “Binding kinetics drive G protein subtype selectivity at the β1-adrenergic receptor” (Nature Communications, 2024).)
